Tests used:
[1] = target: T1, Human CD3 on CD3+ Jurkat cells (human, UniProt P07766 23-207); test: flow cytometry, 100 nM IgG
T1 construct: whole, on cells; Target is the endogenous CD3 complex on cells; also called Human CD3+ Jurkat cells
Experimental: (§1) Specificity of the anti-CD3 antibodies for human CD3+ Jurkat cells and Cynomolgus monkey HSC-F cells was determined using a FACS cell binding assay. Briefly, cells were thawed and washed with cold PBSF buffer (PBS+0.1% BSA, pH 7.4). About 200,000 cells were aliquoted per well of a 96-well plate and pelleted by centrifugation (5 minutes at 500×g). The cells were washed and resuspended in 100 μl PBSF with CHO-produced anti-CD3 IgG antibody (100 nM). The mixture (cells+antibody) was incubated for 20 minutes on ice, then washed twice with PBSF. Cells were resuspended in 50 μl of propidium iodide (1:500 dilution) and anti-human IgG-RPE (1:100 dilution) prepared in PBSF, then incubated for 20 minutes on ice in the dark before cells were washed twice with PBSF. Binding was analyzed on FACS Canto II. Also shown are results using cells without CD3 [CHO-S cells, Jurkat CD3 knockout (CD3−) cells, and HEK cells] for comparison, including results with Jurkat CD3-cells combined with anti-CD3 antibody Fab fragments (100 nM).

[2] = target: T2, Cynomolgus CD3 on HSC-F cells (cynomolgus, UniProt Q95LI5 22-198); test: flow cytometry, 100 nM IgG
T2 construct: whole, on cells; Target is the endogenous CD3 complex on cells; also called Cyno CD3 HSC-F cells; Cyno CD3+ HSC-F cells
T2 sequence (Q95LI5 22-198): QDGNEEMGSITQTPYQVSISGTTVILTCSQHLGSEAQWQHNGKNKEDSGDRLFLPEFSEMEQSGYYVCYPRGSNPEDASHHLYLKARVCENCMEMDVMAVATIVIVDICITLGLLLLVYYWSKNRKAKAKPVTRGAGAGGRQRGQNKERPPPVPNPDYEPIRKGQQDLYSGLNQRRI
Experimental: as §1

[3] = target: T1, Human CD3 on CD3+ Jurkat cells; test: flow cytometry, 100 nM IgG1, pH 7.4
Experimental: (§2) Cell binding assays. CD3+ human Jurkat cells (ATCC) and CHO-S cells (Invitrogen/ThermoFisher) were thawed and washed with cold PBSF buffer, pH 7.4 (PBS+0.1% BSA, pH 7.4). About 200,000 cells were aliquoted per well of a 96-well plate (FACS Assay Plate VWR BD 353263) and pelleted by centrifugation (5 minutes at 500×g). The cells were washed with either PBSF pH 7.4 or PBSF pH 6.0 (PBS+0.1% BSA, pH 6.0), and then resuspended in 100 μl in either PBSF pH 7.4 or PBSF pH 6.0 with IgG1 antibody (100 nM) produced in yeast as described above or in CHO cells. The mixture (cells+antibody) was incubated for 20 minutes on ice, then washed twice with either PBSF pH 7.4 or PBSF pH 6.0. Cells were resuspended in 50 μl of propidium iodide (Roche; 1:500 dilution) and anti-human IgG-RPE (Southern Biotech; 1:100 dilution) prepared in either PBSF pH 7.4 or PBSF pH 6.0, then incubated for 20 minutes on ice in the dark before cells were washed twice with either PBSF pH 7.4 or PBSF pH 6.0. Binding was analyzed on FACS Canto II.
(§3) Anti-CD3 antibodies A001-A005, V002, V004, V007, V009, V010, V013, and V014-V019 were produced as IgG1s in CHO cells, and binding to human CD3+ Jurkat cells and cynomolgus CD3+ HSC-F cells at pH 7.4 was analyzed by flow cytometry as described in Example 2. NCB (Normalized Cell Binding) values were calculated based on control and sample MFI values as NCB={(Sample MFI)−(Secondary only MFI)}/(Secondary only MFI).

[4] = target: T2, Cynomolgus CD3 on HSC-F cells; test: flow cytometry, 100 nM IgG1, pH 7.4
Experimental: as §2, §3

T1 sequence (P07766 23-207): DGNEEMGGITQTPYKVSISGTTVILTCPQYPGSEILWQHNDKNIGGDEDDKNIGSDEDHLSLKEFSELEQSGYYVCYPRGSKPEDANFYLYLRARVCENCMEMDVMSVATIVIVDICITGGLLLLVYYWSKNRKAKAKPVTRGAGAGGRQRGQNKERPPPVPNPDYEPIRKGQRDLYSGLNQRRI

| MFI [1] | MFI [2] | NCB (Normalized Cell Binding) [3] | NCB (Normalized Cell Binding) [4] | Binder |
| --- | --- | --- | --- | --- |
| 3150 MFI | 6050 MFI | 289 | 400 | Antibody No. A001 (ADI-26906) IgG1 (antibody, V domains shown, IgG1, CHO-produced) VH: QVQLVQSGAEVKKPGASVKVSCKASGFNIKDYYMHWVRQAPGQRLEWMGWIDLENANTIYDAKFQGRVTITRDTSASTAYMELSSLRSEDTAVYYCARDAYGRYFYDVWGQGTLVTVSS VL: DIVMTQSPDSLAVSLGERATINCKSSQSLLNARTGKNYLAWYQQKPGQPPKLLIYWASTRESGVPDRFSGSGSGTDFTLTISSLQAEDVAVYYCKQSYSRRTFGGGTKVEIK |
| 3020 MFI | 6010 MFI |  |  | Antibody No. V003 (ADI-67446) IgG1 (antibody, V domains shown, IgG1, CHO-produced) VH: QVQLVQSGAEVKKPGASVKVSCKASGFDIKDYYMHWVRQAPGQRLEWMGWIELENADTIYDAKFQGRVTITRDTSASTAYMELSSLRSEDTAVYYCARDAYGRYFYDVWGQGTLVTVSS VL: DIVMTQSPDSLAVSLGERATINCKSSQSLLNARTGKNYLAWYQQKPGQPPKLLIYWASTRESGVPDRFSGSGSGTDFTLTISSLQAEDVAVYYCKQSYSRRTFGGGTKVEIK |
| 3200 MFI | 6400 MFI |  |  | Antibody No. V008 (ADI-70325) IgG1 (antibody, V domains shown, IgG1, CHO-produced) VH: QVQLVQSGAEVKKPGASVKVSCKASGFNIKDYYMHWVRQAPGQRLEWIGWIDLENAETVYDAKFQDRVTITRDTSASTAYMELSSLRSEDTAVYYCARDAYGRYFYDVWGQGTLVTVSS VL: DIVMSQSPDSLAVSLGERATINCKSSQSLLNARTGKNYLAWYQQKPGQPPKLLIYWASTRSSGVPDRFSGSGSGTDFTLTISSLQAEDVAVYYCVQSYFRRTFGGGTKVEIK |
| 3150 MFI | 5940 MFI |  |  | Antibody No. V005 (ADI-67448) IgG1 (antibody, V domains shown, IgG1, CHO-produced; VH as printed is identical to that of V004) VH: QVQLVQSGAEVKKPGASVKVSCKASGFNIDDYYMHWVRQAPGQRLEWMGWIDLENDNTIYDAKFQGRVTITRDTSASTAYMELSSLRSEDTAVYYCARDAYGRYFYDVWGQGTLVTVSS VL: DIVMTQSPDSLAVSLGERATINCKSSQSLLNARTGKNYLAWYQQKPGQPPKLLIYWASTRESGVPDRFSGSGSGTDFTLTISSLQAEDVAVYYCKQSYSRRTFGGGTKVEIK |
| 3020 MFI | 5800 MFI |  |  | Antibody No. V012 (ADI-70329) IgG1 (antibody, V domains shown, IgG1, CHO-produced) VH: QVQLVQSGAEVKKPGASVKVSCKASGFNDKDYYMHWVRQAPGQRLEWIGWIDLENAETVYDAKFQDRVTITRDTSASTAYMELSSLRSEDTAVYYCARDAYGRYFYDVWGQGTLVTVSS VL: DIVMSQSPDSLAVSLGERATINCKSSQSLLNARTGKNYLAWYQQKPGQPPKLLIYWASTRSSGVPDRFSGSGSGTDFTLTISSLQAEDVAVYYCVQSYFRRTFGGGTKVEIK |
| 3070 MFI | 6230 MFI | 309 | 396 | Antibody No. V009 (ADI-70326) IgG1 (antibody, V domains shown, IgG1, CHO-produced) VH: QVQLVQSGAEVKKPGASVKVSCKASGFDIKDYYMHWVRQAPGQRLEWIGWIELENADTVYDAKFQGRVTITRDTSASTAYMELSSLRSEDTAVYYCARDAYGRYFYDVWGQGTLVTVSS VL: DIVMSQSPDSLAVSLGERATINCKSSQSLLNARTGKNYLAWYQQKPGQPPKLLIYWASTRSSGVPDRFSGSGSGTDFTLTISSLQAEDVAVYYCVQSYFRRTFGGGTKVEIK |
| 2930 MFI | 5490 MFI | 287 | 368 | Antibody No. V007 (ADI-67450) IgG1 (antibody, V domains shown, IgG1, CHO-produced) VH: QVQLVQSGAEVKKPGASVKVSCKASGFNIDDYYMHWVRQAPGQRLEWMGWIDLENANTIDDAKFQGRVTITRDTSASTAYMELSSLRSEDTAVYYCARDAYGRYFYDVWGQGTLVTVSS VL: DIVMTQSPDSLAVSLGERATINCKSSQSLLNARTGKNYLAWYQQKPGQPPKLLIYWASTRESGVPDRFSGSGSGTDFTLTISSLQAEDVAVYYCKQSYSRRTFGGGTKVEIK |
| 2950 MFI | 5740 MFI | 295 | 374 | Antibody No. V013 (ADI-70330) IgG1 (antibody, V domains shown, IgG1, CHO-produced) VH: QVQLVQSGAEVKKPGASVKVSCKASGFNIDDYYMHWVRQAPGQRLEWIGWIDLENANTVDDAKFQGRVTITRDTSASTAYMELSSLRSEDTAVYYCARDAYGRYFYDVWGQGTLVTVSS VL: DIVMSQSPDSLAVSLGERATINCKSSQSLLNARTGKNYLAWYQQKPGQPPKLLIYWASTRSSGVPDRFSGSGSGTDFTLTISSLQAEDVAVYYCVQSYFRRTFGGGTKVEIK |
| 3000 MFI | 5910 MFI |  |  | Antibody No. V011 (ADI-70328) IgG1 (antibody, V domains shown, IgG1, CHO-produced) VH: QVQLVQSGAEVKKPGASVKVSCKASGFNIDDYYMHWVRQAPGQRLEWIGWIDLENDNTVYDAKFQGRVTITRDTSASTAYMELSSLRSEDTAVYYCARDAYGRYFYDVWGQGTLVTVSS VL: DIVMSQSPDSLAVSLGERATINCKSSQSLLNARTGKNYLAWYQQKPGQPPKLLIYWASTRSSGVPDRFSGSGSGTDFTLTISSLQAEDVAVYYCVQSYFRRTFGGGTKVEIK |
| 2910 MFI | 5860 MFI | 298 | 378 | Antibody No. V010 (ADI-70327) IgG1 (antibody, V domains shown, IgG1, CHO-produced) VH: QVQLVQSGAEVKKPGASVKVSCKASGFDIKDYYMHWVRQAPGQRLEWIGWIELENDDTVYDAKFQGRVTITRDTSASTAYMELSSLRSEDTAVYYCARDAYGRYFYDVWGQGTLVTVSS VL: DIVMSQSPDSLAVSLGERATINCKSSQSLLNARTGKNYLAWYQQKPGQPPKLLIYWASTRSSGVPDRFSGSGSGTDFTLTISSLQAEDVAVYYCVQSYFRRTFGGGTKVEIK |
| 3410 MFI | 6310 MFI | 366 | 417 | Antibody No. A002 (ADI-50024) IgG1 (antibody, V domains shown, IgG1, CHO-produced) VH: QVQLVQSGAEVKKPGASVKVSCKASGFNIKDYYMHWVRQAPGQRLEWIGWIDLENANTVYDAKFQGRVTITRDTSASTAYMELSSLRSEDTAVYYCARDAYGRYFYDVWGQGTLVTVSS VL: DIVMSQSPDSLAVSLGERATINCKSSQSLLNARTGKNYLAWYQQKPGQPPKLLIYWASTRSSGVPDRFSGSGSGTDFTLTISSLQAEDVAVYYCVQSYFRRTFGGGTKVEIK |
| 3040 MFI | 5960 MFI | 320 | 388 | Antibody No. V002 (ADI-67445) IgG1 (antibody, V domains shown, IgG1, CHO-produced) VH: QVQLVQSGAEVKKPGASVKVSCKASGFNIKDYYMHWVRQAPGQRLEWMGWIDLENAETIYDAKFQDRVTITRDTSASTAYMELSSLRSEDTAVYYCARDAYGRYFYDEWGQGTLVTVSS VL: DIVMTQSPDSLAVSLGERATINCKSSQSLLNARTGKNYLAWYQQKPGQPPKLLIYWASTRESGVPDRFSGSGSGTDFTLTISSLQAEDVAVYYCKQSYSRRTFGGGTKVEIK |
| 3040 MFI | 5750 MFI |  |  | Antibody No. V006 (ADI-67449) IgG1 (antibody, V domains shown, IgG1, CHO-produced) VH: QVQLVQSGAEVKKPGASVKVSCKASGFNDKDYYMHWVRQAPGQRLEWMGWIDLENAETIYDAKFQDRVTITRDTSASTAYMELSSLRSEDTAVYYCARDAYGRYFYDVWGQGTLVTVSS VL: DIVMTQSPDSLAVSLGERATINCKSSQSLLNARTGKNYLAWYQQKPGQPPKLLIYWASTRESGVPDRFSGSGSGTDFTLTISSLQAEDVAVYYCKQSYSRRTFGGGTKVEIK |

Source: patent publication US20240317858A1 (Adimab, published 2024)
